Experimental data as given in patent EP1724347A2.
Where no end group is shown, it is not given here.

Biological target: GST-KIX
Experiment: fluorescence polarization

Sequence of GST-KIX (P45481 586-665): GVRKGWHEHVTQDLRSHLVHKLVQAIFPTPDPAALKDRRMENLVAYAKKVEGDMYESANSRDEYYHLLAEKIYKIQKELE

Question: Which Kd does the source give for GASDMTYWGDDAPVRRLSFFYILLDLYLDAPC(acetamidofluorescein) (designed binder, also: phosphorylated, site not given here) [phosphorylated PPKID1] here?
Answer: 31 nM

Question: How did the Kd turn out when GMSRVTPGGDDAPVRRLSFFYILRDLYLDAPC(acetamidofluorescein) (designed binder, also: phosphorylated, site not given here) [phosphorylated PPKID2] was run?
Answer: 280 nM

Question: GMSRVTPGGDDAPVRRLSFFYILRDLYLDAPC(acetamidofluorescein) (designed binder) [unphosphorylated PPKID2] was tested. Which Kd did it give?
Answer: 7600 nM

Question: GASPHTSSGDDAPVRRLSFFDILLDLYLDAPC(acetamidofluorescein) (designed binder, also: phosphorylated, site not given here) [phosphorylated PPKID3] was tested. Which Kd did it give?
Answer: 73 nM

Question: Which Kd does the source give for GASPHTSSGDDAPVRRLSFFDILLDLYLDAPC(acetamidofluorescein) (designed binder) [unphosphorylated PPKID3] here?
Answer: 681 nM
